Measurements published in paper PMC7102968, “The complex formed between a synthetic RNA aptamer and the transcription repressor TetR is a structural and functional twin of the operator DNA–TetR regulator complex”.

Key:
TetR-R28A [1] = target: T1, TetR-R28A (UniProt P04483 1-187+P0ACT4:188-208, R28A;C68S;C88N;C121T;C144S;internal_change); experiment: EMSA; 10 mM Mg2+, up to 1000 nM TetR; ITC: 20 mM potassium phosphate pH 7.4, 50 mM NaCl, 25 C; EMSA: 50 mM Tris-HCl pH 8.0, 10 mM MgCl2, 25 mM NaCl, 25 ug/ml yeast tRNA, room temperature; SEC buffer not given (preparative complex: 20 mM Tris-HCl pH 8.0, 150 mM NaCl, 5 mM MgCl2); conditions: protein: recombinant, chain copies: 2, label: 5'-32P in EMSA, none in ITC, crystal, hairpin, L-shaped, 43 nt, stems P1 and P2
TetR(BD') [2] = target: T2, TetR(BD') (UniProt P04483 1-187+P0ACT4:188-208, C68S;C88N;C121T;C144S;internal_change); experiment: EMSA; 10 mM Mg2+, 25 ug/ml yeast tRNA; ITC: 20 mM potassium phosphate pH 7.4, 50 mM NaCl, 25 C; EMSA: 50 mM Tris-HCl pH 8.0, 10 mM MgCl2, 25 mM NaCl, 25 ug/ml yeast tRNA, room temperature; SEC buffer not given (preparative complex: 20 mM Tris-HCl pH 8.0, 150 mM NaCl, 5 mM MgCl2); conditions: protein: recombinant, chain copies: 2, label: 5'-32P in EMSA, none in ITC, crystal, hairpin, L-shaped, 43 nt, stems P1 and P2
TetR-Q38A [3] = target: T3, TetR-Q38A (UniProt P04483 1-187+P0ACT4:188-208, Q38A;C68S;C88N;C121T;C144S;internal_change); experiment: ITC; n=1.10; ITC: 20 mM potassium phosphate pH 7.4, 50 mM NaCl, 25 C; EMSA: 50 mM Tris-HCl pH 8.0, 10 mM MgCl2, 25 mM NaCl, 25 ug/ml yeast tRNA, room temperature; SEC buffer not given (preparative complex: 20 mM Tris-HCl pH 8.0, 150 mM NaCl, 5 mM MgCl2); conditions: protein: recombinant, chain copies: 2, label: 5'-32P in EMSA, none in ITC, crystal, hairpin, L-shaped, 43 nt, stems P1 and P2
TetR(BD') [4] = target: T2, TetR(BD'); experiment: ITC; n=0.96 (TetR dimer per aptamer); ITC: 20 mM potassium phosphate pH 7.4, 50 mM NaCl, 25 C; EMSA: 50 mM Tris-HCl pH 8.0, 10 mM MgCl2, 25 mM NaCl, 25 ug/ml yeast tRNA, room temperature; SEC buffer not given (preparative complex: 20 mM Tris-HCl pH 8.0, 150 mM NaCl, 5 mM MgCl2); conditions: protein: recombinant, chain copies: 2, label: 5'-32P in EMSA, none in ITC, crystal, hairpin, L-shaped, 43 nt, stems P1 and P2
TetR-Q38A [5] = target: T3, TetR-Q38A; experiment: EMSA; 10 mM Mg2+, 25 ug/ml yeast tRNA; exact Kd not determinable, weak binding detected; ITC: 20 mM potassium phosphate pH 7.4, 50 mM NaCl, 25 C; EMSA: 50 mM Tris-HCl pH 8.0, 10 mM MgCl2, 25 mM NaCl, 25 ug/ml yeast tRNA, room temperature; SEC buffer not given (preparative complex: 20 mM Tris-HCl pH 8.0, 150 mM NaCl, 5 mM MgCl2); conditions: protein: recombinant, chain copies: 2, label: 5'-32P in EMSA, none in ITC, crystal, hairpin, L-shaped, 43 nt, stems P1 and P2
TetR-R28A [6] = target: T1, TetR-R28A; experiment: SEC; ITC: 20 mM potassium phosphate pH 7.4, 50 mM NaCl, 25 C; EMSA: 50 mM Tris-HCl pH 8.0, 10 mM MgCl2, 25 mM NaCl, 25 ug/ml yeast tRNA, room temperature; SEC buffer not given (preparative complex: 20 mM Tris-HCl pH 8.0, 150 mM NaCl, 5 mM MgCl2); conditions: protein: recombinant; chain copies: 2; blunt
TetR-Q38A [7] = target: T3, TetR-Q38A; experiment: as above; conditions: protein: recombinant; chain copies: 2; blunt
TetR-Y42A = TetR-Y42A (UniProt P04483 1-187+P0ACT4:188-208, Y42A;C68S;C88N;C121T;C144S;internal_change); experiment: as above; conditions: protein: recombinant; chain copies: 2; blunt
TetR(BD') [8] = target: T2, TetR(BD'); experiment: ITC; n=1.17; ITC: 20 mM potassium phosphate pH 7.4, 50 mM NaCl, 25 C; EMSA: 50 mM Tris-HCl pH 8.0, 10 mM MgCl2, 25 mM NaCl, 25 ug/ml yeast tRNA, room temperature; SEC buffer not given (preparative complex: 20 mM Tris-HCl pH 8.0, 150 mM NaCl, 5 mM MgCl2); conditions: protein: recombinant; chain copies: 2; blunt
TetR(BD') [9] = target: T2, TetR(BD'); experiment: X-ray crystallography; 2.9 A; ITC: 20 mM potassium phosphate pH 7.4, 50 mM NaCl, 25 C; EMSA: 50 mM Tris-HCl pH 8.0, 10 mM MgCl2, 25 mM NaCl, 25 ug/ml yeast tRNA, room temperature; SEC buffer not given (preparative complex: 20 mM Tris-HCl pH 8.0, 150 mM NaCl, 5 mM MgCl2); conditions: protein: recombinant; chain copies: 2; hairpin, L-shaped, 39 nt, UUCG loop

B1: TetR-binding aptamer K1 (structured_RNA)
RNA: GGCCGGAGAAUGUUAUGGCGCGAAAGCGCAGAGAAAACCGGUC
binding result (TetR-R28A [1]): no binding | Kd (TetR(BD') [2]): 80 nM | Kd (TetR-Q38A [3]): 26.2 nM | Kd (TetR(BD') [4]): 5.6 nM | Kd (TetR-Q38A [5]): > 500 nM

B2: tetO operator 25 bp (dsDNA)
DNA 1: CGCATTCTATCATTGATAGGATGCG
DNA 2: CGCATCCTATCAATGATAGAATGCG
binding result (TetR-R28A [6]): no binding | binding result (TetR-Q38A [7]): binds | binding result (TetR-Y42A): no binding | Kd (TetR(BD') [8]): 51.1 nM

B3: TetR-binding aptamer K2 (structured_RNA)
RNA: GGCGGAGAAUGUUAUGGCCUUCGGGCAGAGAAAACCGUC
binding result (TetR(BD') [9]): binds
